Results on four molecules are retold here after patent publication CN114181311A (dated 2022).

For test [1], the target named is T1, His-DLL3胞外区蛋白 (Human DLL3 Protein, His Tag, ACRO DL3-H52H4) (human, UniProt Q9NYJ7 27-492).
T1 construct: extracellular domain; Bought protein; also called DLL3-His; DLL3抗原; not shown: His tag
T1 sequence (looked up): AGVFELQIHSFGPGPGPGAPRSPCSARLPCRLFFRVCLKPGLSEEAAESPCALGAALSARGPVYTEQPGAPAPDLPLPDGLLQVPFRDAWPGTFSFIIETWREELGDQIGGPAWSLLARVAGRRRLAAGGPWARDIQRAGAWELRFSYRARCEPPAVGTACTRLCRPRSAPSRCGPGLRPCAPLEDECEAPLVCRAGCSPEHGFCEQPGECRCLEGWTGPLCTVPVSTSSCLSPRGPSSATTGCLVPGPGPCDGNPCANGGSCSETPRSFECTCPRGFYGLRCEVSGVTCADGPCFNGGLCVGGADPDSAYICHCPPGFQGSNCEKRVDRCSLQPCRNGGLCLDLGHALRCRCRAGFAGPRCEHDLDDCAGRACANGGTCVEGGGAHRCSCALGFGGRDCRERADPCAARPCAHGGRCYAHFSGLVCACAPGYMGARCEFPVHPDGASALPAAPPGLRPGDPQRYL
Nature of the test: phage ELISA, scFv shown on M13 phage, coated DLL3-His 1 ug/ml, anti-M13-HRP. (In general: ELISA stands for enzyme-linked immunosorbent assay.)

For test [2], the target named is T2, BSA(牛血清白蛋白) (bovine, UniProt P02769 25-607). Nature of the test: ELISA, periplasmic extract with soluble scFv on coated BSA, anti-c-myc-HRP detection.
T2 sequence (P02769 25-607 limits assumed): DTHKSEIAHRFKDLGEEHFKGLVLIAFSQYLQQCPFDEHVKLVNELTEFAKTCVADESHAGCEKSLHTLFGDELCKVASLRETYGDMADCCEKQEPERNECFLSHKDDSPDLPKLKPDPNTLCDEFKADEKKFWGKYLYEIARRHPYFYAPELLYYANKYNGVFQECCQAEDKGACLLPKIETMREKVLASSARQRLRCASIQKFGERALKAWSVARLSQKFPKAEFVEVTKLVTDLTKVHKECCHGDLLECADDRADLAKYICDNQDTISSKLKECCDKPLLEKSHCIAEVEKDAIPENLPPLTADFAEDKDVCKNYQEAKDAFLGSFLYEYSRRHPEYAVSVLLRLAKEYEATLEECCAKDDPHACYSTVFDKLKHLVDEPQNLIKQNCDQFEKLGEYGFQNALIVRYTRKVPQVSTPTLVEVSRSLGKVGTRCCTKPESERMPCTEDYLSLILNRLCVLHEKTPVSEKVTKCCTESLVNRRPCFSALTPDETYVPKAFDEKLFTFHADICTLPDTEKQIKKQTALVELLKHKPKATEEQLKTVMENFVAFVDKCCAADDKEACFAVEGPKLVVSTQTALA
Test [3] has as its target T3, 小细胞肺癌细胞系SHP-77上表达的DLL3抗原 (UniProt Q9NYJ7 27-618).
T3 construct: whole, on cells; Endogenous DLL3 on SHP-77 cells; also called DLL3 on SHP-77 cells
T3 sequence (looked up): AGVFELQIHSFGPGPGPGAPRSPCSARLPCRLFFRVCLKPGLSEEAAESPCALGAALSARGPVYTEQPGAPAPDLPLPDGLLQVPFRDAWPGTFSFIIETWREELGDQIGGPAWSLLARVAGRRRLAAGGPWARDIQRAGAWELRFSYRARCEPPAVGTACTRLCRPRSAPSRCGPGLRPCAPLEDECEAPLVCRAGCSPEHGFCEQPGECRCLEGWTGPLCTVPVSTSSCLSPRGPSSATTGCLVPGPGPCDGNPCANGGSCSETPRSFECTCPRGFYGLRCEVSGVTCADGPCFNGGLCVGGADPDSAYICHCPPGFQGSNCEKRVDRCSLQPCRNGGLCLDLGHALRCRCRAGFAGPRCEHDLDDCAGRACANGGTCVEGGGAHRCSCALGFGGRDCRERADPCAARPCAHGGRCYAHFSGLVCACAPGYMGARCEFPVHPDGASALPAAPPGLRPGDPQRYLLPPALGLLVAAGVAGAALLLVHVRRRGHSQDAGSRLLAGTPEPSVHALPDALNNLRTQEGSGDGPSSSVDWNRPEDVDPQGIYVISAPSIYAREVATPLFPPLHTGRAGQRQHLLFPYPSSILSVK
Nature of the test: flow cytometry on SHP-77 cells, PE anti-human Fc detection. Background: A flow cytometer gives signals particle by particle.

Test [4] addresses T2, BSA(牛血清白蛋白). Nature of the test: ELISA, 293T culture supernatant on coated BSA, anti-human IgG-Fc-HRP detection.
Test [5] addresses T1, His-DLL3胞外区蛋白 (Human DLL3 Protein, His …). Nature of the test: ELISA, 293T culture supernatant, coated DLL3-His 1 ug/ml, anti-human IgG-Fc-HRP.

B1: 抗DLL3 scFv G8 (G8-scFv) (scFv)
scFv: QVQLQQSGPGLVKPSQTLSLTCAISGDSVSSDSVAWSWIRQSPSRGLEWLGRTYYRSKWYYDYAASVKSRISINPDTSKNQFSLQLNSVTPEDTAVYYCAREPLRYGSSWWDAFDIWGQGTMITVSSGSASAPTLGGGGSGGGGSGGGGSQSALTQPPSVSGSPGQAVTISCTGTSSDVGRYNYVSWYQQHPGKVPKLILFDVSSRPSGVSHRFSGSKSGNTASLTISGLQAEDEADYYCTSYRSGSEVFGGGTKLTVL
notes: Fully human scFv from a phage library; also called 抗DLL3阳性克隆G8; 抗DLL3可溶性抗体G8
Consider B1, for which the binding result was “binds” in test [1] and “no binding” in test [2].

B2: G8 scFv-hFc (Fc fusion)
chain: B1 scFv
notes: Expressed in 293T cells and tested as culture supernatant; also called G8 scFv-hFc重组蛋白; not shown: human IgG1 Fc segment from the mammalian expression vector PUTAM003
For the molecule B2, the values for the binding result in test [3], in test [4] and in test [5] were “binds”, “no binding” and “binds”, respectively.

B3: 抗DLL3 scFv A7 (A7-scFv) (scFv)
scFv: QVQLVQSGAEVKKPGASVKVSCKASGYTFTSYYMHWVRQAPGQGLEWMGIINPSGGSTSYAKKFQGRVTMTRDTSTSTVYMELNRVTSDDTAVYYCARGGGVTGFDYWGQGTLVTVSSGSASAPTLGGGGSGGGGSGGGGSDIQMTQSPSSLSASLGDRVTITCRASQTVRTYLNWYQQKPGKAPNLLIYGASSLQSGVPSRFSGSGSGTDFTLTINSLQPEDFGTYYCQQSDTPPLTFGGGTKVEIK
notes: Fully human scFv from a phage library; also called 抗DLL3阳性克隆A7; 抗DLL3可溶性抗体A7
As for B3, the binding result in test [1] was “binds”; in test [2], “no binding”.

B4: A7 scFv-hFc (Fc fusion)
chain: B3 scFv
notes: Expressed in 293T cells and tested as culture supernatant; also called A7 scFv-hFc重组蛋白; 抗DLL3单链抗体(scFv-hFc); not shown: human IgG1 Fc segment from the mammalian expression vector PUTAM003
Consider B4, for which the binding result in test [3] was “binds”; in test [4] it was “no binding”; in test [5], “binds”.
